Measurements taken from PMC11381523 (Nature Communications, 2024).

Molecular target: Rpb2 subunit of Komagataella phaffii RNA polymerase II (TAP-tagged) (Komagataella phaffii, UniProt F2QTX9 1-1227)
Assay: cryo-EM structure

B1: Komagataella phaffii Rai1 (E213A/D215A), kpRai1(2A) (enzyme)
chain: MSKEKILPLAARSKKAMLRQPKQVAYFSRDLNYKTHPDRSNLSYYYLPDGDIDNSIDLSVGSKHFLLGDSVELSKLDPILLALKEIEKESGAKTKDRIITWRGIMRKLLTLPYDSEEDFVLDVVSFDGQLFIQFNVPYLKSKDVQKQGDTEFHKKLQFSGYKFEKMATLPKPWPECTRKEIDSRAKSKCNNIEQYGAIVRTGISRIKILIGGAVACTADYYDENDPLSRYIELKTTRTINQYKDMIAFEKKLFRTWAQCFLLGIPKIIYGFRDDNCILRTVEEFSTNDIPLMVKNNPLNEQPKKENCYMSSINFYGAVVEWLNESVKDDQVWKLSYAKRNRQYLVLKEVTDENEKQQIVDSAIPAWFKEWRSELRNSEGNI
binding result: binds
